Target: purified human BAG3 protein (human, UniProt O95817 1-575)
Assay: peptide or protein array

purified human BAG3 protein, sequence (O95817 whole entry): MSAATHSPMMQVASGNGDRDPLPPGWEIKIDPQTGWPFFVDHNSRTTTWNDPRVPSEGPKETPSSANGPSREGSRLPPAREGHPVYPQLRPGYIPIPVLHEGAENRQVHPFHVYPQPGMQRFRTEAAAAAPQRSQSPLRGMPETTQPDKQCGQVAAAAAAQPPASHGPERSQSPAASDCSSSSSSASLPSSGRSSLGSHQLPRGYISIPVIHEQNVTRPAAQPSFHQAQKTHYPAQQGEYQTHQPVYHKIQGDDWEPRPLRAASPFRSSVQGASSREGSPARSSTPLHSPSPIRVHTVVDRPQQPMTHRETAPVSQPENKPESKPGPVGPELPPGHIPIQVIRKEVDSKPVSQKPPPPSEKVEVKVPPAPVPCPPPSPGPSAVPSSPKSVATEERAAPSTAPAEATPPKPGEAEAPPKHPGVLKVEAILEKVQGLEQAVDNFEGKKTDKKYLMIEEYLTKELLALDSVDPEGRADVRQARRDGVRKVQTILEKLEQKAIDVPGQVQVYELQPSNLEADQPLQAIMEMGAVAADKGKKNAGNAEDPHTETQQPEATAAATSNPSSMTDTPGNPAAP

**Q.** Does ICALFMLPLCLMVCQWRCLRCLRQQHDDFA (peptide, UniProt P56817 465-494, looked up) [I465-A494 region of human BACE1 (peptide array spots)] bind?
**A.** Result: binds

— paper PMC12101485 (Science Advances, 2025)
